# In the RNAGym collection of RNA variant scans (doi:10.7554/elife.80360):
# B1: Hairpin Ribozyme (parent)
# chain: GUCCUCUUUCACGUGCGCGUGAAAGAGAGAAGUGAACCAGAGAAACACACGUUGUGGUAUAUUACCUGGUA
# Variants of: B1
# Assay: self-cleavage, relative activity (ratio to wild type); higher = more cleavage; co-transcriptional
row,Variant,self-cleavage
1,U52C A59G,0.0564
2,U52C A59C,0.254
3,G57C U58G,0.277
4,G57U U60G,0.177
5,G54A U67C,0.12
6,G54A U67A,0.206
7,U52G U67A,0.212
8,U53C G56C,0.149
9,U53C G56A,0.211
10,U58C A59G,0.272
11,U58C A59C,0.304
12,U55G U58G,0.206
13,G57A C66G,0.103
14,G57A C66U,0.2
15,U52G A64U,0.183
16,U52A G54A,0.621
17,G57A U60G,0.21
18,U55G G68A,0.237
19,U55G G68C,0.251
20,U55C U67C,0.172
21,G57C U63G,0.18
22,U53C U62A,0.119
23,U53A G68C,0.249
24,U53A G68U,0.2

row,Variant,self-cleavage
1,U53A G68A,0.279
2,G54A G68A,0.206
3,U55G A59G,0.139
4,U55G A59C,0.156
5,U53A C65U,0.241
6,U53A C65A,0.901
7,U53A C65G,0.28
8,G57C U70G,0.119
9,U52A G57A,0.182
10,U52A G57U,0.267
11,G56U A61U,0.124
12,G54A U70A,0.409
13,G54A U70C,0.244
14,G54A U70G,0.387
15,U53A U58C,0.574
16,G54U A64U,0.114
17,G57U A59U,0.411
18,U52A G68C,0.231
19,U55A U70C,0.311
20,U55A U70G,0.342
21,U55G U70C,0.264
22,U52C G57U,0.207
23,U55G C65A,0.3
24,G54C G69C,0.0871

row,Variant,self-cleavage
1,U55C U60A,0.168
2,U55C U60G,0.347
3,G54A A71G,0.426
4,G54A A71U,0.309
5,U55C A64U,0.154
6,G54U G56C,0.24
7,G54U G56A,0.114
8,U55A C65A,0.204
9,U52C U60G,0.55
10,U52C U60C,1.16
11,U52G C66G,0.215
12,U58A C65G,0.0985
13,U52C C65G,0.426
14,U52C G68U,0.311
15,U52C G68A,0.258
16,U52C G68C,0.219
17,G56C U67C,0.138
18,G56U C66A,0.208
19,U53G U63A,0.13
20,U53G U63C,0.241
21,U52A G56U,0.196
22,U52A G56C,0.124
23,U52A U60C,1.42
24,U52A U60A,0.988

row,Variant,self-cleavage
1,U55C U62G,0.132
2,U55G G56A,0.125
3,G54C C65U,0.132
4,G54C C65G,0.151
5,G57A C65A,0.222
6,G57A C65G,0.291
7,G56U G57C,0.144
8,G56U G57A,0.222
9,G56U G57U,0.204
10,G54C U63A,0.103
11,G54C U63C,0.099
12,G54C A64C,0.104
13,U53A U62C,0.231
14,U52G U53C,1
15,G56C U70A,0.272
16,G56C U70C,0.134
17,G57C U60C,0.156
18,G56A U60A,0.121
19,G56A U60C,0.219
20,U55G A71C,0.708
21,G54A U60A,0.409
22,G54A U60C,0.912
23,U53G U60G,0.704
24,U53C A71G,1.05

row,Variant,self-cleavage
1,U53C A71C,1.26
2,U55A A59U,0.205
3,U53A G57C,0.145
4,G54A U55A,0.39
5,G54A U55G,0.162
6,U55A U67C,0.149
7,G57A G69C,0.141
8,G57A G69U,0.121
9,G57U U70C,0.075
10,U53C U55C,0.329
11,U53C U55A,0.34
12,U53C U55G,0.306
13,G57U U62C,0.158
14,G54C G68U,0.158
15,G54C G68C,0.221
16,G57A U70A,0.134
17,U52A C66U,0.604
18,U52A C66G,0.149
19,U52C G69C,0.313
20,U53C A61U,0.377
21,U53C A61G,0.254
22,U53G A64G,0.599
23,U52C G54A,0.568
24,G56A U58G,0.274

row,Variant,self-cleavage
1,G56A U58C,0.162
2,G56A U58A,0.0823
3,U53C U70C,1.04
4,U53C U70G,0.765
5,G56U U62A,0.186
6,G56U U62C,0.122
7,G57A A71C,0.4
8,G57A A71G,0.112
9,G57C A64G,0.126
10,G57A U58A,0.169
11,G57A U58G,0.123
12,G57A U58C,0.21
13,U55A A64U,0.302
14,U53A C66G,0.247
15,U53G G69A,0.363
16,U53A U60C,1.31
17,U53G G68A,0.179
18,U53G U70C,0.783
19,U53G U70A,0.712
20,U52C A61G,0.253
21,U52C A61U,0.226
22,U52C A61C,0.263
23,G56U,0.157
24,G56C,0.156

row,Variant,self-cleavage
1,G56A,0.174
2,U55A C66U,0.258
3,U55A C66G,0.24
4,G57U G68A,0.188
5,G57U G68C,0.211
6,U53C G69U,0.378
7,U53A U67G,0.385
8,U53A U67A,0.109
9,G54U G69U,0.182
10,G54U G69C,0.194
11,G56C G57A,0.115
12,U55C U63C,0.233
13,U53C U63A,0.177
14,U53C U63C,0.0362
15,U53C U63G,0.144
16,U53C A59G,0.303
17,G54A U62A,0.188
18,G54A U62G,0.0558
19,U53A U63A,0.153
20,U53A U63G,0.249
21,U55A U58C,0.427
22,U55A U58G,0.183
23,G54A U63A,0.209
